Measured values from patent US20260035459A1, “HUMANIZED CHIMERIC ANTIGEN RECEPTORS TARGETING THE B-CELL RECEPTOR OF CHRONIC LYMPHOCYTIC LEUKEMIA AND USES THEREOF” (AVA LIFESCIENCE GMBH, priority 2022, published 2026).

Legend:
[1] = system: OCI-LY1 R110 cell line (OCIR110); assay: In-vitro cytotoxicity assay (IncuCyte Caspase-3/7), OCI-LY1 R110; assay type: cell-based, human; details: construct 1: IgG4 hinge spacer; construct 2: additional CH2-CH3 spacer
Protocol: Neoepitope (i.e. cancer-specific peptide) engineered cell line OCI-LY1 R110 expressing the IGLV3-21^R110 light chain as part of a BCR with induced R110 point mutation was generated from OCI-LY1 wt cells. First, OCI-LY1 wt cells were cultivated in RPMI 1640 Medium, GlutaMAX™ Supplement (Thermo Fisher, Cat. 61870044) supplemented with 20% (v/v) FBS (Life Technologies, Cat. 10500064) and 1% (v/v) penicillin-streptomycin (10,000 U/mL) (Thermo Fisher, Cat. 15140122) at 37° C. in a humidified atmosphere including 5% CO2. […]
Target cells seeded at 2×10^4 cells/well in a 96-well plate were co-incubated with effector cells at effector-to-target (E: T) ratio 5:1 in complete CTL medium consisting of RPMI 1640 Medium GlutaMAX™ Supplement (Thermo Fisher, Cat. 61870044) supplemented with 10% (v/v) FBS (Life Technologies, Cat. 10500064), 1% (v/v) penicillin-streptomycin (10,000 U/mL) (Thermo Fisher, Cat. 15140122), 50 μM β-mercaptoethanol (Thermo Fisher, Cat. 31350010) and 50 U/mL IL-2 (StemCell, Cat. 78036.1). CAR T cell mediated tumor cell killing was assessed using the IncuCyte@ Caspase-3/7 Green Reagent for Apoptosis (Sartorius, Cat. 4440) according to the manufacturer's instructions. Read out of dead (-green-fluorescent) target cells was performed on an
IncuCyte@ S3 (Sartorius) after 2 to 16 hours or 4 to 36 hours. The killing graphs were calculated by the IncuCyte@ software (version 2022A). […]

[2] = system: wild-type IGLV3-21G110-variant; assay: FACS binding assay on BCR-expressing TKO cells (germline control); set-up: species or system human; details: fluorescently labeled anti-mouse IgG
Sequence of wild-type IGLV3-21G110-variant (as listed by the source): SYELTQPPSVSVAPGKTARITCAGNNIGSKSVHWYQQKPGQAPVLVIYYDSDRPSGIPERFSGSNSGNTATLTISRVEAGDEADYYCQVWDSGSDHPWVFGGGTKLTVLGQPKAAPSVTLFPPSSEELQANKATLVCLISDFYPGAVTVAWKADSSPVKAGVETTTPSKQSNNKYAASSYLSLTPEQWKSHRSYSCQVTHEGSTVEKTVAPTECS
Sequence of wild-type IGLV3-21G110-variant (P01871 with tags, fused parts or gaps partner): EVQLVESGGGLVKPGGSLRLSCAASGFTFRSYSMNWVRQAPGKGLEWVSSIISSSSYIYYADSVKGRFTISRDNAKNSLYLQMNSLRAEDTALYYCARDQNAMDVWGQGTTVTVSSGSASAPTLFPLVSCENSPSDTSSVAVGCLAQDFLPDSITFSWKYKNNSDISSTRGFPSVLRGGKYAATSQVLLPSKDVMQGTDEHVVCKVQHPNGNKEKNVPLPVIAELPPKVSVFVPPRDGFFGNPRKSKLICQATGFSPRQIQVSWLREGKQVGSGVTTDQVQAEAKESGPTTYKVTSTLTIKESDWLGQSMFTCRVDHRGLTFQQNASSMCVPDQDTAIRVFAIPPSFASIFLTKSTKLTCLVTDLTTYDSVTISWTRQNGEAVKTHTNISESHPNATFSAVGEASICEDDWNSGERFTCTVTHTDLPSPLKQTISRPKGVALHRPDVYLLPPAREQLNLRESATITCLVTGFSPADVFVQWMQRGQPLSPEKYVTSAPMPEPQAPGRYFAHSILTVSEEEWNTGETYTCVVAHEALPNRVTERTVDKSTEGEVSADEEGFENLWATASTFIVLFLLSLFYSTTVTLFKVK
Sequence of wild-type IGLV3-21G110-variant (P11911 29-220 partner): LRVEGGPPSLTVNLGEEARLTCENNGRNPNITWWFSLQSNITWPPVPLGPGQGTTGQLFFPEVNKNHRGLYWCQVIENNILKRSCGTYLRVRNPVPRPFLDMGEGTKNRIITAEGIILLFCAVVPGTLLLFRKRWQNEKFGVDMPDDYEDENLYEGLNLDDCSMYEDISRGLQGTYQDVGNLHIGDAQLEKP
Sequence of wild-type IGLV3-21G110-variant (P15530 26-228 partner): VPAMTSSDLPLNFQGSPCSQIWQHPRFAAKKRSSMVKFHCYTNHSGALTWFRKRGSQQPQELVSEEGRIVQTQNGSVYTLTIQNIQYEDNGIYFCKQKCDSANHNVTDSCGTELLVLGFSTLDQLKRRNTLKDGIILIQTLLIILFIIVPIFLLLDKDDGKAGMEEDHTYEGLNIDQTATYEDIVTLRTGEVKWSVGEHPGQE
Text: (§1) The screening for positive clones was not performed by enzyme linked immunosorbent assay (ELISA) as usual. Since the target structure is a membrane-bound receptor, it is of central importance to validate the binding of the potential antibodies in a cellular system, i.e. while largely preserving the cell physiological states native to this cell type. First, groups of pooled supernatants were examined for binding events using fluorescence activated cell sorting (FACS) analysis. For this purpose different BCR variants were expressed on the surface of a triple knockout (TKO) cell line, which cannot express BCR itself.
(§2) For reconstitution with a ‘BCR of interest’, the corresponding sequence coding for the VH was fused with a human IgM constant segment by polymerase chain reaction (PCR), and heavy (HC) and light (LC) chains were cloned into respective expression vectors each having a CMV promoter. These were introduced into the packaging cell line (Phoenix cell line) by lipofection. After 36 hours of incubation, the virus supernatant was removed and used for spinfection of the TKO cells. BCR expression was determined using anti-IgM and anti-LC antibodies on FACS. For this purpose, some cells were taken and stained with 5 μl antibody each in a total volume of 100 μl in PBS. Both the work to extract the supernatants and the spinfection of the TKO are widely known procedures and known to experts. […]

[3] = target: T1, IGHV3-21/IGLV3-21^R110 BCR (Homo sapiens, UniProt P80748); assay: FACS binding assay on BCR-expressing TKO cells; details: fluorescently labeled anti-mouse IgG
T1 construct: a complete light chain (LC) DNA covering IGLV3-21^R110 were synthesized; expressed in transfected cells; host or cells: murine triple knockout (TKO) pro-/pre-B cells, retroviral spinfection
T1 sequence (P80748 with tags, fused parts or gaps V22E/Q35K/G42A/V66I/D68Y/S112G): as the sequence (as listed by the source) above, with G110R counted along it
Text: as §1, §2

| Molecule | killing capacity, CAR construct 1 versus CAR construct 2 [1] | binding to wild-type IGLV3-21G110-variant [2] | binding to IGLV3-21^R110-BCRs [3] |
| --- | --- | --- | --- |
| H1: humanized anti-IGLV3-21^R110 CAR, VL SEQ ID NO: 7, VH SEQ ID NO: 11, scFv SEQ ID NO: 13 (protein) scFv: EIVLTQSPSSLSASVGDSVTITCRASGNIHSYLAWYQQKPGKAPKLLIYNAKTLADGVPSRFSGSGSGTQYTLTISSLQPEDFATYYCQHFWNTPPTFGAGTKLELKGGGGSGGGGSGGGGSGGGGSQVQLQESGPGLVKPSETLSLTCTVSGFSLTSYGIHWIRQSPGRGLEWIGVIWRGGGTDSNAAFMSRVTISVDTSKSQVSLKLGSVTAADTAIYYCARSRYDEEESMNYWGQGTSVTVSS | remarkably higher in CAR construct 1 than in CAR construct 2 | – | – |
| H2: humanized anti-IGLV3-21^R110 CAR, VL SEQ ID NO: 7, VH SEQ ID NO: 12, scFv SEQ ID NO: 14 (protein) scFv: EIVLTQSPSSLSASVGDSVTITCRASGNIHSYLAWYQQKPGKAPKLLIYNAKTLADGVPSRFSGSGSGTQYTLTISSLQPEDFATYYCQHFWNTPPTFGAGTKLELKGGGGSGGGGSGGGGSGGGGSQVQLQESGPGLVKPSETLSLTCTVSGFSLTSYGIHWIRQSPGRGLEWIGVIWRGGGTDSNAAFMSRITISRDTSKTQVSLKLGSVTAADTAIYYCARSRYDEEESMNYWGQGTSVTVSS | remarkably higher in CAR construct 1 than in CAR construct 2 | – | – |
| mAb01-01: murine monoclonal anti-IGLV3-21^R110 antibody, VL SEQ ID NO: 44, VH SEQ ID NO: 45 (antibody, listed as Mus musculus, V domains shown) VH: QVQLQQSGPGLVQPSQSLSITCTVSGFSLTSYGIHWVRQSPGKGLEWLGVIWRGGGTDSNAAFMSRLSITKDNSKSQVFFKMNSLQADDTAIYYCARSRYDEEESMNYWGQGTSVTVSS VL: QIVLTQSPASLSASVGETVTITCRASGNIHSYLAWYQQKQGKSPQLLVYNAKTLADGVPSRFSGSGSGTQYSLKINSLQPEDFGSYYCQHFWNTPPTFGAGTKLELK | – | without any detectable binding | high specificity and cross-reactivity |
